These results are taken from PMC6086658, “Unified mechanisms for self-RNA recognition by RIG-I Singleton-Merten syndrome variants” (eLife, 2018).

One data set addresses T1, RIG-I Δ2CARD C268F (human, UniProt O95786 232-925, C268F).
T1 sequence: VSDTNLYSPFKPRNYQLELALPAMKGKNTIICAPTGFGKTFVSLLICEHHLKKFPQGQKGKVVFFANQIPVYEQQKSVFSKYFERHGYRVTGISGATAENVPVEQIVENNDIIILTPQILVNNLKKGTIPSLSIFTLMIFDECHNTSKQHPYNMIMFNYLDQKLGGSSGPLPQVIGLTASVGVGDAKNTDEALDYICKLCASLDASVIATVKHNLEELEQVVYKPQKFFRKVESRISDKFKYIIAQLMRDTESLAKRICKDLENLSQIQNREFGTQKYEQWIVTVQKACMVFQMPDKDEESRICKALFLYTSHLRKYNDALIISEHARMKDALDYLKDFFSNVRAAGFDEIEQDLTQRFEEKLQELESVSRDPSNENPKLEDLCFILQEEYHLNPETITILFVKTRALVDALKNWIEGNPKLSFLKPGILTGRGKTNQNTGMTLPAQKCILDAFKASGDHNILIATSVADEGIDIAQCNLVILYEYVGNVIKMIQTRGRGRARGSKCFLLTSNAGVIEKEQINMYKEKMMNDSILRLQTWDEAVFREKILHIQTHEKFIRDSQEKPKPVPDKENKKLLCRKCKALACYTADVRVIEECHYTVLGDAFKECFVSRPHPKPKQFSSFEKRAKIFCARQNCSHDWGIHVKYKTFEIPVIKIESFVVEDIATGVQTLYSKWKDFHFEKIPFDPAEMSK
The data set is described as follows: crystal structure; co-crystallized with ADP-BeFx or ATP; no nucleotide bound in structure; Fluorescence anisotropy: 25 mM HEPES pH 7, 50 mM KCl, 5 mM MgCl2, 1 mM DTT, +/- 5 mM ATP, 10 nM RNA, room temperature. To be noted: protein: recombinant; tags: N-terminal His-tag (insect cells) or His-SUMO3 cleaved off (E. coli); blunt, palindromic self-duplex. In general terms: Fluorescence polarisation rises when a labelled molecule tumbles more slowly, as on binding a larger partner.

Another data set addresses T2, RIG-I C268F (human, UniProt O95786 1-925, C268F).
T2 sequence: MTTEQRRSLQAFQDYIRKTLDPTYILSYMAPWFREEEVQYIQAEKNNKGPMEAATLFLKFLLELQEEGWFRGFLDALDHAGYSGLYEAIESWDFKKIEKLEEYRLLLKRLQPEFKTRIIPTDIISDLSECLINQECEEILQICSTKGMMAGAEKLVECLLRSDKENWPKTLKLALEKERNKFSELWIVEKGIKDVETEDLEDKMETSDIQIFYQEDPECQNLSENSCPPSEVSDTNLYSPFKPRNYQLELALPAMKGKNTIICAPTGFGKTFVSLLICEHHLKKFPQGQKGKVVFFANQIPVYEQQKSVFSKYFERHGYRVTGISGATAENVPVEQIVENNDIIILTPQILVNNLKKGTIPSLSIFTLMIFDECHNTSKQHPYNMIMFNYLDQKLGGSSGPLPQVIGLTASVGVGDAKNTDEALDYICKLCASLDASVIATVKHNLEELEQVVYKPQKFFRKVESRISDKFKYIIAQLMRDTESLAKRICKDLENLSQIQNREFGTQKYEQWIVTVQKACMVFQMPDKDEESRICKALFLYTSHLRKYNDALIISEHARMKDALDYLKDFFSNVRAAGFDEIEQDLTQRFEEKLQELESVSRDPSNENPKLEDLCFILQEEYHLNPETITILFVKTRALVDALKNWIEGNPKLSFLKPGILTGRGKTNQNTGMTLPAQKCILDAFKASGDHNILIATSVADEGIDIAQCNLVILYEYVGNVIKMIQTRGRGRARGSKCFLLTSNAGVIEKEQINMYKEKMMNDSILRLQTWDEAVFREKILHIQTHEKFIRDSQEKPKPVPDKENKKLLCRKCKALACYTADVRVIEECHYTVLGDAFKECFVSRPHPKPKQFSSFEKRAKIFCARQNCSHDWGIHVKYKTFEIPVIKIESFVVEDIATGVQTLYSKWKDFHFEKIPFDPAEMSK
The data set is described as follows: fluorescence anisotropy; no ATP, 5 mM Mg2+; Fluorescence anisotropy: 25 mM HEPES pH 7, 50 mM KCl, 5 mM MgCl2, 1 mM DTT, +/- 5 mM ATP, 10 nM RNA, room temperature. Particulars: protein: recombinant; tags: N-terminal His-tag; label: 5'-Cy3; hairpin with non-base-paired ends.

The next data set concerns the target T3, RIG-I wild type (human, UniProt O95786 1-925).
T3 sequence: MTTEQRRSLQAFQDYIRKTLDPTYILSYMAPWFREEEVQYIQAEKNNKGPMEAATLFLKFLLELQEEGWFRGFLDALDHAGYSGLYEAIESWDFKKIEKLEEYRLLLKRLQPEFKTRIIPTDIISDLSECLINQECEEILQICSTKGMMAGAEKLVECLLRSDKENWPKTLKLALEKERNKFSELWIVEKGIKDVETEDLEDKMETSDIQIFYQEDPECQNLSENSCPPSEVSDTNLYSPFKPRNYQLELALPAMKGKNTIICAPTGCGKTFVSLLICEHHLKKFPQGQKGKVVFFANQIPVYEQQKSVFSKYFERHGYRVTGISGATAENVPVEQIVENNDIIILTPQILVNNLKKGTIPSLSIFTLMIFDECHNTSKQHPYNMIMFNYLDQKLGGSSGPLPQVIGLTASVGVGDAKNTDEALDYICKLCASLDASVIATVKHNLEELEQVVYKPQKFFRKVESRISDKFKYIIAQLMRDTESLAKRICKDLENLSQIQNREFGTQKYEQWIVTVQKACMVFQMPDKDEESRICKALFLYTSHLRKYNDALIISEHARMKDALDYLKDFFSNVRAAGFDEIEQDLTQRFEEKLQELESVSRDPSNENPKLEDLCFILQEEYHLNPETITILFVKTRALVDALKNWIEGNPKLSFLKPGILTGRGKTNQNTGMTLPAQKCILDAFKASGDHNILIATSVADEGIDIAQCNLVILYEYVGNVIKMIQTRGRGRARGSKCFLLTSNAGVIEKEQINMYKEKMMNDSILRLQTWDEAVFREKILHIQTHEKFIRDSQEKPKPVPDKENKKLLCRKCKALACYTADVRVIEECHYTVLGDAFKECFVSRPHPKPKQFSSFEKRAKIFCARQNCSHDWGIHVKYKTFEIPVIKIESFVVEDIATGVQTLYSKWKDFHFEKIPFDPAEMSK
The description is as above. To be noted: protein: recombinant; tags: N-terminal His-tag; label: 5'-Cy3; hairpin with non-base-paired ends.

B1: 14mer dsRNA (dsRNA)
RNA 1: CGACGCUAGCGUCG
RNA 2: CGACGCUAGCGUCG
For the molecule B1, the binding result with RIG-I Δ2CARD C268F is “binds”. As for CCACCCGCCCCCCUAGUGAGGGGGGCGGGCC (structured_RNA) [Cy3-hpRNA (14mer stem hairpin)], the binding result with RIG-I C268F and in the data set with RIG-I wild type was “binds” each time.
